Test results from patent US6759384 (AVENTIS PHARMACEUTICALS, dated 2004).
Non-standard residues stand in square brackets, D forms with d. No end group written: not given here. Phe(4-guanidino) = N=C(N)Nc1ccc(C[C@H](N)C(=O)O)cc1; Phe(4-CN) = N#Cc1ccc(C[C@H](N)C(=O)O)cc1; Phe(4-NH2) = Nc1ccc(C[C@H](N)C(=O)O)cc1; dPhe(4-F) = N[C@H](Cc1ccc(F)cc1)C(=O)O; 1Nal = N[C@@H](Cc1cccc2ccccc12)C(=O)O; 2Nal = N[C@@H](Cc1ccc2ccccc2c1)C(=O)O; (CH3CH2CH2(CH3))G = N-alkylglycine; Gly(N-cHex) = O=C(O)CNC1CCCCC1; Chg = N[C@H](C(=O)O)C1CCCCC1; Nle = CCCC[C@H](N)C(=O)O; Nphe = O=C(O)CNCc1ccccc1

B1: Ac-F(pCN)-I-R-L-P-NH2 (peptide)
peptide: Ac-[Phe(4-CN)]IRLP-NH2
SMILES: CC[C@H](C)[C@H](NC(=O)[C@H](Cc1ccc(C#N)cc1)NC(C)=O)C(=O)N[C@@H](CCCNC(=N)N)C(=O)N[C@@H](CC(C)C)C(=O)N1CCC[C@H]1C(N)=O
B2: Ac-f(pF)-I-R-L-P-NH2 (peptide)
peptide: Ac-[dPhe(4-F)]IRLP-NH2
SMILES: CC[C@H](C)[C@H](NC(=O)[C@@H](Cc1ccc(F)cc1)NC(C)=O)C(=O)N[C@@H](CCCNC(=N)N)C(=O)N[C@@H](CC(C)C)C(=O)N1CCC[C@H]1C(N)=O
B3: f-I-R-I-P-NH2 (peptide)
peptide: [dF]IRIP-NH2
modifications: N-terminus assumed
SMILES: CC[C@H](C)[C@H](NC(=O)[C@H](N)Cc1ccccc1)C(=O)N[C@@H](CCCNC(=N)N)C(=O)N[C@H](C(=O)N1CCC[C@H]1C(N)=O)[C@@H](C)CC
B4: f(pF)-I-R-L-P-NH2 (peptide)
peptide: [dPhe(4-F)]IRLP-NH2
modifications: N-terminus assumed
SMILES: CC[C@H](C)[C@H](NC(=O)[C@H](N)Cc1ccc(F)cc1)C(=O)N[C@@H](CCCNC(=N)N)C(=O)N[C@@H](CC(C)C)C(=O)N1CCC[C@H]1C(N)=O
B5: y-I-R-L-A-NH2 (peptide)
peptide: [dY]IRLA-NH2
modifications: N-terminus assumed
SMILES: CC[C@H](C)[C@H](NC(=O)[C@H](N)Cc1ccc(O)cc1)C(=O)N[C@@H](CCCNC(=N)N)C(=O)N[C@@H](CC(C)C)C(=O)N[C@@H](C)C(N)=O
B6: f-I-R-F-P-NH2 (peptide)
peptide: [dF]IRFP-NH2
modifications: N-terminus assumed
SMILES: CC[C@H](C)[C@H](NC(=O)[C@H](N)Cc1ccccc1)C(=O)N[C@@H](CCCNC(=N)N)C(=O)N[C@@H](Cc1ccccc1)C(=O)N1CCC[C@H]1C(N)=O
B7: Y-I-R-L-a-NH2 (peptide)
peptide: YIRL[dA]-NH2
modifications: N-terminus assumed
SMILES: CC[C@H](C)[C@H](NC(=O)[C@@H](N)Cc1ccc(O)cc1)C(=O)N[C@@H](CCCNC(=N)N)C(=O)N[C@@H](CC(C)C)C(=O)N[C@H](C)C(N)=O
B8: Ac-F(pNH2)-Chg-R-(Chx)G-G-OH (peptide)
peptide: Ac-[Phe(4-NH2)][Chg]R[Gly(N-cHex)]G-OH
SMILES: CC(=O)N[C@@H](Cc1ccc(N)cc1)C(=O)N[C@H](C(=O)N[C@@H](CCCNC(=N)N)C(=O)N(CC(=O)NCC(=O)O)C1CCCCC1)C1CCCCC1
B9: Ac-Phe-(pGua)-I-R-L-P-NH2 (peptide)
peptide: Ac-[Phe(4-guanidino)]IRLP-NH2
SMILES: CC[C@H](C)[C@H](NC(=O)[C@H](Cc1ccc(NC(=N)N)cc1)NC(C)=O)C(=O)N[C@@H](CCCNC(=N)N)C(=O)N[C@@H](CC(C)C)C(=O)N1CCC[C@H]1C(N)=O
B10: w-L-R-V-A-NH2 (peptide)
peptide: [dW]LRVA-NH2
modifications: N-terminus assumed
SMILES: CC(C)C[C@H](NC(=O)[C@H](N)Cc1c[nH]c2ccccc12)C(=O)N[C@@H](CCCNC(=N)N)C(=O)N[C@H](C(=O)N[C@@H](C)C(N)=O)C(C)C
B11: Ac-G-y-Nle-R-L-NH2 (peptide)
peptide: Ac-G[dY][Nle]RL-NH2
SMILES: CCCC[C@H](NC(=O)[C@@H](Cc1ccc(O)cc1)NC(=O)CNC(C)=O)C(=O)N[C@@H](CCCNC(=N)N)C(=O)N[C@@H](CC(C)C)C(N)=O
B12: Ac-G-Y-Nle-R-L-NH2 (peptide)
peptide: Ac-GY[Nle]RL-NH2
SMILES: CCCC[C@H](NC(=O)[C@H](Cc1ccc(O)cc1)NC(=O)CNC(C)=O)C(=O)N[C@@H](CCCNC(=N)N)C(=O)N[C@@H](CC(C)C)C(N)=O
B13: Ac-F(pNH2)-I-R-L-P-NH2 (peptide)
peptide: Ac-[Phe(4-NH2)]IRLP-NH2
SMILES: CC[C@H](C)[C@H](NC(=O)[C@H](Cc1ccc(N)cc1)NC(C)=O)C(=O)N[C@@H](CCCNC(=N)N)C(=O)N[C@@H](CC(C)C)C(=O)N1CCC[C@H]1C(N)=O
B14: Ac-F(pNH2)-Chg-R-(Bzl)G-G-OH (peptide)
peptide: Ac-[Phe(4-NH2)][Chg]R[Nphe]G-OH
SMILES: CC(=O)N[C@@H](Cc1ccc(N)cc1)C(=O)N[C@H](C(=O)N[C@@H](CCCNC(=N)N)C(=O)N(CC(=O)NCC(=O)O)Cc1ccccc1)C1CCCCC1

The binders below were run against human factor Xa (Enzyme Research Laboratories, Inc.) (human, UniProt P00742 41-179; P00742 235-488, limits assumed) (assay: chromogenic FXa inhibition).
human factor Xa (Enzyme Research Laboratories, Inc.), sequence (P00742 41-179 limits assumed, chain 1 of 2): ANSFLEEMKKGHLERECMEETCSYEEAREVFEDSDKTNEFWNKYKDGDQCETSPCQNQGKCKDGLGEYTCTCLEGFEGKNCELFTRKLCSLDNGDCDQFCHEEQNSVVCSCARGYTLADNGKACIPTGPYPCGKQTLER
human factor Xa (Enzyme Research Laboratories, Inc.), sequence (P00742 235-488 limits assumed, chain 2 of 2): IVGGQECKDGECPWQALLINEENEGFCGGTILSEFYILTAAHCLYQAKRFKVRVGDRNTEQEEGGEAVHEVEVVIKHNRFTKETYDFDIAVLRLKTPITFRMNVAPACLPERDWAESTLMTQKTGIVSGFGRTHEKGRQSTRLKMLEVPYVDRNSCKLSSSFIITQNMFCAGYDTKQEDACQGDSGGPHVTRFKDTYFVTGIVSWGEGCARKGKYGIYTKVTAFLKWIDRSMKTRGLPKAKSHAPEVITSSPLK
Procedure: TBS-P buffer (50 mM Tris-Cl, pH 7.8, 200 mM NaCl, 0.05% (w/v) PEG-8000, 0.02% (w/v) NaN_3) was used for this assay. The IC$50$ was determined by combining in appropriate wells of a Costar half-area microtiter plate 25 μl human factor Xa (Enzyme Research Laboratories, Inc.; South Bend Ind.) in TBS-P; 40 μl 10% (v/v) DMSO in TBS-P (uninhibited control) or various concentrations of a peptide to be tested diluted in 10% (v/v) DMSO in TBS-P; and substrate S-2765 (Nα-benzyloxycarbonyl-D-Arg-Gly-L-Arg-p-nitroanilide; Kabi Pharmacia, Inc.; Franklin Ohio) in TBS-P.
The assays were performed by pre-incubating the peptide inhibitor plus enzyme for 10 min, then the assay was initiated by adding substrate to obtain a final volume of 100 μl. The initial velocity of chromogenic substrate hydrolysis was measured by the change in absorbance at 405 nm using a Bio-tek Instruments kinetic plate reader (Ceres UV900HDi) at 25° C. during the linear portion of the time course (usually 1–5 min after addition of substrate). The concentration of inhibitor that caused a 50% decrease in the rate of substrate hydrolysis was predicted by linear regression after plotting the relative rates of hydrolysis (compared to the uninhibited control) versus the log of the peptide concentration. The enzyme concentration was 0.5 nM and substrate concentration was 140 μM.
With B1 the Ki was < 100 µM. In the case of B2, the Ki is reported as < 100 µM. For B3, the Ki was < 100 µM. YIRIY-NH2 [Y-I-R-I-Y-NH2] was tested, and the Ki was < 100 µM. In the case of Ac-[dY]IRLA [Ac-y-I-R-L-A], the Ki is reported as < 100 µM. With YIRLA-NH2 [Y-I-R-L-A-NH2] the Ki was < 100 µM. For B4, the Ki was < 100 µM. With [dY]IRGP-NH2 (also: R3-G4 (COCH2) bond replaces peptide bond) [y-I-R(COCH2)-G-P-NH2] the Ki was < 100 µM. {N‑morpholinyl‑CO}-FIRLP-NH2 [N-morpholinyl-CO-F-I-R-L-P-NH2] was tested, and the Ki was < 100 µM. For YIRGA-NH2 [Y-I-R-G-A-NH2], the Ki was < 100 µM. With B5 the Ki was < 100 µM. In the case of B6, the Ki is reported as < 100 µM. For B7, the Ki was < 100 µM. In the case of B8, the Ki is reported as < 100 µM. For B9, the Ki was < 100 µM. Ac-GGYIRG-NH2 [Ac-G-G-Y-I-R-G-NH2] was tested, and the Ki was < 100 µM. For Ac-[Phe(4-NH2)][Chg]R[(CH3CH2CH2(CH3))G]G-OH (name runs over rows r100 and r101) [Ac-F(pNH2)-Chg-R-(CH3CH2CH2(CH3))G-G-OH], the Ki was < 100 µM. For Ac-WLRLA-NH2 [Ac-W-L-R-L-A-NH2], the Ki was < 100 µM. WLRVA-NH2 [W-L-R-V-A-NH2] was tested, and the Ki was < 100 µM. For B10, the Ki was < 100 µM. For Ac-YIRLP-NH2 (also: pseudo peptide bond ψ(CH2N(Ac)) between Y1 and I2) [Ac-Y-{ψ(CH2N(Ac))}-I-R-L-P-NH2], the Ki was < 100 µM. B11 was tested, and the Ki was < 100 µM. In the case of Ac-[2Nal]IRLP-NH2 [Ac-Nal(2)-I-R-L-P-NH2], the Ki is reported as < 100 µM. Ac-YIRLP-NH2 (also: reduced pseudo peptide bond ψ(CH2NH) between Y1 and I2) [Ac-Y-{ψ(CH2NH)}-I-R-L-P-NH2] was tested, and the Ki was < 100 µM. With Ac-[1Nal]IRLP-NH2 [Ac-Nal(1)-I-R-L-P-NH2] the Ki was < 100 µM. For Ac-SYIRLP-NH2 [Ac-S-Y-I-R-L-P-NH2], the Ki was < 100 µM. With GYIRLP-NH2 [G-Y-I-R-L-P-NH2] the Ki was < 100 µM. In the case of B12, the Ki is reported as < 100 µM. With B13 the Ki was < 100 µM. With B14 the Ki was < 100 µM. In the case of XIRLP (N-term Ac; Y1=Y(Me) O-methyl tyrosine; C-term NH2) [Ac-Y(Me)-I-R-L-P-NH2], the Ki is reported as < 100 µM.
